In patent US7271143B1, “Peptides for regulation of urokinase (uPA) and tissue type (tPA) plasminogen activator and method of optimizing therapeutic efficacy” (Thrombotech Ltd., priority 2001, dated 2007):
Read-outs that look alike come from different tables or passages of the source. Ends that are not written are not given here.

How the values were obtained:
isolated rat aorta rings = test: PE-induced contraction of isolated rat aorta rings; assay type: cell-based
Procedure: FIG. 1A is a diagram describing the results of experiments on the effect of tPA on PE-induced contraction of isolated rat aorta rings. Contraction of aortic rings was induced by increasing the concentrations of phenylephrine (PE), in the absence of tPA (full triangles) or in the presence of 1 nM (filled squares) or 20 nM tPA (empty squares).
FIG. 1B describes the results of experiments in which the contraction of aortic rings was induced in the absence of TNK-tPA (filled triangles), in the presence of 1 nM tPA (filled squares) or 20 nM tPA (empty squares).
FIG. 4 is a graph describing the effect of tPA on phenylepbrine-induced contraction of isolated rat aorta rings in vitro. The contraction of the aorta rings was induced by varying concentrations of phenylephrine in the absence of tPA (filled triangles), in the presence of 1 nM of TA (filled squares) or in the presence of 10 nM tPA (empty squares). The experiments were performed according to procedures described earlier by Haj-Yehia A et al., FASEB J, 2000, 14:1411–1422.
(§1) The effect of TNK-tPA on PE-induced contraction was compared with the effect of tPA, in the isolated aorta rings. The experimental procedure followed has been described earlier (Haj-Yehia A, Nassar T, Sachais B, Kuo A, Bdeir K., Al-Mehdi A-B, Mazar A, Cines D, Higazi A A-R. Urokinase-derived peptides regulate vascular smooth muscle contraction in vitro and in vivo. FASEB J 2000; 14:1411–1422.
FIG. 4 describes a graph describing the effect of TA on phenylephrine-induced contraction of isolated rat aorta rings in vitro. The contraction of the aorta rings was induced by varying concentrations of phenylephrine in the absence of tPA (filled triangles), in the presence of 1 nM of tPA (filled squares) or in the presence of 10 nM TA (empty squares). The experiments were performed according to procedures described earlier by Haj-Yehia A et al., FASEB J, 2000, 14:1411–1422.

tPA [1] = target: T1, tPA (Homo sapiens, UniProt P00750); test: Effect on vasoactivity of tPA (PE-induced contraction of aorta rings); assay type: cell-based
Procedure: (§2) FIG. 2 is a graphical representation of the results obtained in experiments to study the effect of PAI-1 on the vasoactivity of tPA. The EC50 of PE was determined in the absence (Control) or presence of 1 nM tPA, 20 nM tPA, 1 nM tPA and an equimolar concentration of PAI-1, 20 nM tPA and an equimolar concentration of PAI-1, 1 nM tPA and 2 μM of SEQ ID NO:1 or 20 nM tPA and 2 μM of SEQ ID NO:1.
as §2, with “FIG. 3 is a” for “FIG. 2 is a”, “effect of RAP and anti-LRP antibodies on the” for “effect of PAI-1 on the”
(§3) FIG. 6 is a bar diagram describing the results of studies done on the effect of PAI-1 derived peptide on tPA vasoactivity. The constriction of aorta rings was induced by increasing the concentrations of phenylepbrine in the absence or presence of 1 nM tPA, 1 nM tPA and 1 OM SEQ ID NO:1, 10 mM tPA or 10 nM tPA and 1 OM of SEQ ID NO:1.
as §1
In an attempt to understand the basis for the modification in the vasoactivity of TNK-tPA, the role of the PAI-1 docking site in the process was examined.
(§4) The effect of revertase and TNK-tPA on the PE induced vasocontraction was studied in presence or absence of the LRP antagonist (RAP) or anti LRP antibodies.
as §3, with “phenylephrine” for “phenylepbrine”, “OM,” for “OM SEQ ID NO:1,”, “nM” for “mM”, “OM.” for “OM of SEQ ID NO:1.”

TNK-tPA = TNK-tPA (Homo sapiens, UniProt P00750, H332A/K331A/N152Q/R333A/R334A/T138N); test: Effect on vasoactivity of TNK-tPA (PE-induced contraction of aorta rings); assay type: cell-based
Procedure: as §2
The effect of TNK-tPA on PE-induced contraction was compared with the effect of tPA, in the isolated aorta rings.
PAI-1 interacts with tPA through independent sites; the catalytic site and a docking site, present in the amino acids […] to 299. The PAI-1 docking site is mutated in TNK-tPA. […] Madison E L, Goldsmith W. Gething M-J, H., Sambrook J F, Gerard R D. Restoration of serine protease-inhibitor interaction by protein engineering. Journal of Biological Chemistry. 1990; 265:21423–21426.
as §4

uPA [2] = target: T2, uPA (Homo sapiens, UniProt P00749); test: Effect on vasoactivity of uPA (PE-induced contraction of aorta rings); assay type: cell-based
Procedure: FIG. 5 is a bar diagram describing the results of experiments on the vasoactivity of uPA and tPA in the presence or absence of PAI-1, for example, the effect of 2 nM uPA or 1 nM tPA on phenylephrine induced vasoconstriction was determined in the presence or absence of equimolar concentrations of PAI-1.
FIG. 5 describes a bar diagram describing the results of experiments on the vasoactivity of uPA and tPA in the presence of absence of PAI-1, for example, the effect of 2 nM uPA or 1 nM tPA on phenylephrine induced vasoconstriction was determined in the presence or absence of equimolar concentrations of PAI-1.
as §3, with “phenylephrine” for “phenylepbrine”, “OM,” for “OM SEQ ID NO:1,”, “nM” for “mM”, “OM.” for “OM of SEQ ID NO:1.”

tPA [3] = target: T1, tPA; test: tPA mediated clot lysis / chromogenic assay of tPA activity; assay type: biochemical
Procedure: (§5) FIG. 7 is a bar diagram describing the results of experiments on the effect of PAI-1 derived peptide on tPA mediated clot lysis. The capacity of TA to induce clot lysis was determined in the presence and absence of 1 OM of SEQ ID NO:1. In these experiments, blood from volunteers was allowed to clot at room temperature for one hour, the blood clot was separated from the plasma, placed on absorbing paper to remove all the serum and cut into several pieces. The pieces were weighed, and placed in PBS buffer alone or containing 100 nM tPA, with or without 1 OM of SEQ ID NO:1. After incubation for 3 hours at room temperature, the thrombi are separated from the medium, dried and weighed.
as §5, with “of tPA” for “of TA”, “of 10 M.” for “of 1 OM of SEQ ID NO:1.”, “without 10M.” for “without 1 OM of SEQ ID NO:1.”, “weighed. […]” for “weighed.”

uPA [4] = target: T2, uPA; test: Effect on fibrinolytic activity of uPA; assay type: biochemical
scuPA = scuPA (Homo sapiens, UniProt P00749); test: Effect on fibrinolytic activity of scuPA (blood clot lysis); assay type: biochemical
[5] = in vivo; cited from earlier work
[6] = in vivo; cited from earlier work; remark: listed apart in the source

Sequence of TNK-tPA (P00750 36-562 T138N/N152Q/K331A/H332A/R333A/R334A): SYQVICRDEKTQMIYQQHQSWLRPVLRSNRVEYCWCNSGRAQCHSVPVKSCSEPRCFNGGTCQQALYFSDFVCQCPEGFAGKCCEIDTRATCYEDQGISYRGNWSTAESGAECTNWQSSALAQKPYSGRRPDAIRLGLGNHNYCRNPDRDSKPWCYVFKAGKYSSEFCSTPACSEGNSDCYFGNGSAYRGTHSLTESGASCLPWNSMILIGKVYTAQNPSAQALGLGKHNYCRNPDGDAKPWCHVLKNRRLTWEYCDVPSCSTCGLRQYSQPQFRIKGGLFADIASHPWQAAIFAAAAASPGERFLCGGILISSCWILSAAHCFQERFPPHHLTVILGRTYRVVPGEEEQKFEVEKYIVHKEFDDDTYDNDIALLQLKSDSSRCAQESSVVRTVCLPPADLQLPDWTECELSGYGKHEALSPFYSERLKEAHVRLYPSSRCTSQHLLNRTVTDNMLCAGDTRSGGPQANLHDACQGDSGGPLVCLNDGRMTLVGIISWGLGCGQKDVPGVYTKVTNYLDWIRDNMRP
T1 sequence (P00750 36-562): as the sequence (P00750 36-562 T138N/N152Q/K331A/H332A/R333A/R334A) above, with N103T, Q117N, A296K, A297H, A298R, A299R counted along it

## CNC[C@H](O)c1cccc(O)c1 [PE, phenylephrine, reference compound]
Isolated rat aorta rings; Rattus norvegicus, control, before addition of plasminogen activator, read-out: EC50 of PE-induced constriction
  EC50: 34 nM

## EEIIMD [SEQ ID NO:1, six amino acid peptide corresponding to residues 350 to 355 of PAI-1]
Isolated rat aorta rings; without tPA or uPA
  effect alone on contraction of aorta rings: Neither PAI-1 nor alone had any effect
tPA [1]; 2 μM peptide
  effect on vasoactive effects of rtPA: abolished
tPA [1]; concentration not given
  effect on enhancing effect of tPA on phenylephrine-induced vasoconstriction in aorta ring cultures: abolishes
tPA [1]; peptide at 10M (so in the source)
  effect on enhancing effect of tPA on phenylephrine induced vasoconstriction: abolished
TNK-tPA; 2 μM peptide
  effect on vasoactive effect of TNK-tPA: unaffected
TNK-tPA; 10 μM peptide
  effect on vasoactive effect of TNK-tPA: abolished
TNK-tPA; 5 molar concentration of the peptide
  effect on vasoactive effect of TNK-tPA: abolished
TNK-tPA; equimolar concentration of peptide
  effect on vasoactive effect of TNK-tPA: unaffected
uPA [2]; concentration not given
  effect on enhancing effect of uPA on phenylephrine-induced vasoconstriction: abrogates
uPA [2]; same as on tPA, peptide at 10M (so in the source)
  effect on enhancing effect of uPA on phenylephrine induced vasoconstriction: the same effect
tPA [3]
  effect on fibrinolytic activity of tPA: no effect
tPA [3]; 100 nM tPA, peptide 10M (so in the source), 3 hours, room temperature
  effect on catalytic activity of tPA (clot lysis, FIG. 7): no significant effect
uPA [4]
  effect on fibrinolytic activity of uPA: no effect
scuPA
  effect on fibrinolytic activity of scuPA: no effect
scuPA; listed as 6 amino acid peptide
  effect on fibrinolytic activity of scuPA: stimulates synergistically

## rRAP: LRP antagonist, recombinant receptor associated protein [reference compound]
tPA [1]
  effect on vasoactive effect of tPA: totally abolished
TNK-tPA; anti-LRP antibodies or LRP antagonist
  effect on vasoactive effect of TNK-tPA: totally abolished

## tPA: tissue-type plasminogen activator, single-chain serine protease; rtPA is the recombinant form
Isolated rat aorta rings
  affinity of first (fast) epitope, inhibits PE induced vasoconstriction: around 1 nM
  affinity of second epitope, stimulates PE-induced vasoconstriction: around 20 nM
Isolated rat aorta rings; 1 nM
  effect on PE-induced vasoconstriction: inhibited
Isolated rat aorta rings; 1 nM, listed as TA
  effect on PE-induced vasoconstriction: inhibits
Isolated rat aorta rings; 20 nM
  effect on PE-induced vasoconstriction: stimulated
Isolated rat aorta rings; FIG. 4
  capacity to induce vasodilatation: has the capacity to induce vasodilatation
Isolated rat aorta rings; increased tPA concentrations (printed 1 nM; FIG. 4 uses 10 nM)
  effect on phenylephrine-induced vasoconstriction: stimulated
[5]
  non-cerebral bleeding episodes: 5.94%
[6]
  incidence of subsequent symptomatic intracerebral hemorrhage: approximately six
  patients with symptomatic intracerebral hemorrhage who die: approximately fifty
